In the test the test system is frozen-thawed rooster sperm. Briefly: Restoration of binding capability of frozen-thawed rooster sperm to hen's egg membrane extract (Examples 1, 2, 6, 7). It is filed as cell-based. To be noted: FIG. 2. The text has this:
Although the invention has been described generally above, particular examples give additional illustration of the products and method steps typical of the present polypeptide and uses thereof. The data presented in FIGS. 1 to 3 and 6 to 9 show the number of sperm bound per unit area of laid hen's egg perivitelline membrane, or data derived from such binding, or bound to a substrate prepared using an extract from such perivitelline membranes pursuant to the method disclosed in co-pending patent application Ser. No. 08/234,448. Except when noted, native protein extracted from rooster sperm with UPSEBP activity was used.
Freshly collected rooster sperm were cryopreserved, thawed and processed to remove glycerol. One portion of the thawed sperm received crude UPSEBP at a concentration of 2 μg protein per 10^6 sperm. Samples containing 1-10×10^6 sperm were placed into wells coated with an extract of hen's egg membrane and incubated 180 minutes. Non-bound sperm were removed by washing, and bound sperm were stained with diamido-2-phenylindole and counted using an epifluorescent microscope.
Rooster sperm subjected to a cryopreservation cycle were treated with increasing amounts of partially purified UPSEBP and subject to a standard binding assay, together with aliquots of unfrozen (fresh) sperm.
Frozen-thawed turkey sperm were exposed to rooster UPSEBP or semi-purified SGP-1.

B1: saposin D: human saposin produced by proteolytic cleavage of prosaposin (protein, UniProt P07602 405-486, looked up)
Saposin-D: DGGFCEVCKKLVGYLDRNLEKNSTKQEILAALEKGCSFLPDPYQKQCDQFVAEYEPVLIEILVEVMDPSFVCLKIGACPSAH
modifications: Saposin-D
notes: human saposin produced by proteolytic cleavage of prosaposin
As for B1, the “Restoration of binding (in words)” value is reported as “ineffective at restoring binding”.

For the origin of these results see USRE39034E1, “Molecule involved in binding of sperm to egg surfaces and procedures for use of this molecule to enhance or decrease potential fertility” (The Penn State Research Foundation, priority 1996, dated 2006).
